Measured values: the supplement of paper PMC7125110
± gives the standard error. Variants at the floor of the assay were thinned out.

B1: glmS ribozyme (parent)
chain: AUAAAAGCGCCAGAACUACAGAAAUGUAGUUGACGAGGAGGAGGUUUAUCGAAUUUUCGGCGGAUGCCUCCAAA

Experiments:
Settings in all cases: with glucosamine-6-phosphate
glucosamine-6-phosphate [1] = variants of: B1; test: self-cleavage kobs at 40 uM GlcN6P; higher = faster cleavage; RNA array
In short: (§1)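 Glucosamine-6-phosphate, from 40 μM to 10 mM in HEPES/KCl/Mg(OAc)2 buffer, was flowed over sequenced MiSeq chips carrying barcoded ribozyme variants transcribed in situ by E. coli RNA polymerase. A hybridised Cy3 probe tracked the variants at 37 °C as tiles were imaged over ~14 h. kobs, kcat and KM were obtained by fitting normalised per-tile medians to exponential decays and then applying weighted Michaelis–Menten fits across concentrations.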

glucosamine-6-phosphate [2] = variants of: B1; test: self-cleavage kobs at 160 uM GlcN6P; higher = faster cleavage; RNA array
In short: as §1

glucosamine-6-phosphate [3] = variants of: B1; test: self-cleavage kobs at 640 uM GlcN6P; higher = faster cleavage; RNA array
In short: as §1

glucosamine-6-phosphate [4] = variants of: B1; test: self-cleavage kobs at 2500 uM GlcN6P; higher = faster cleavage; RNA array
In short: as §1

glucosamine-6-phosphate [5] = variants of: B1; test: self-cleavage kobs at 10000 uM GlcN6P; higher = faster cleavage; RNA array
In short: as §1

Variant	self-cleavage kobs at 40 uM GlcN6P (glucosamine-6-phosphate [1]) [s⁻¹]	self-cleavage kobs at 160 uM GlcN6P (glucosamine-6-phosphate [2]) [s⁻¹]	self-cleavage kobs at 640 uM GlcN6P (glucosamine-6-phosphate [3]) [s⁻¹]	self-cleavage kobs at 2500 uM GlcN6P (glucosamine-6-phosphate [4]) [s⁻¹]	self-cleavage kobs at 10000 uM GlcN6P (glucosamine-6-phosphate [5]) [s⁻¹]
U31A C50U	< 1e-05	< 1e-05			
U31A G59A G62A	< 1e-05				
U30G A39G	0.000352 ± 8.4e-05	0.000654 ± 0.00021	0.00235 ± 0.00063	0.00681 ± 0.0014	0.0183 ± 0.007
G29C U47G C68G	7.83e-05 ± 2.3e-05				3.71e-05 ± 1.3e-05
U31C C34A C68U	< 1e-05				< 1e-05
U30C U49A	< 1e-05	< 1e-05	< 1e-05		
U31A U47G C70U	0.000179 ± 3.9e-05	0.000219 ± 4.3e-05	0.000928 ± 0.00014	0.000719 ± 0.00018	0.00277 ± 0.00063
U30G G44C	< 1e-05	< 1e-05			3.93e-05 ± 1.1e-05
U31A A52G C67G	6.56e-05 ± 1.9e-05				9.04e-05 ± 1.2e-05
U30G U45A A64C	< 1e-05				7e-05 ± 1.7e-05
U30G A64U	< 1e-05	< 1e-05			
U31C G43C	< 1e-05		< 1e-05	< 1e-05	< 1e-05
U30C A33C U47G	< 1e-05				< 1e-05
U30G A33U U56A G63U G66U	< 1e-05				< 1e-05
U31A C71U	0.000386 ± 3.4e-05	0.000552 ± 0.0001	0.00393 ± 0.00052	0.00846 ± 0.0018	0.0362 ± 0.0056
U31A C71G	4.17e-05 ± 1e-05	0.000162 ± 3.4e-05	0.000196 ± 3.4e-05	0.000225 ± 4.8e-05	0.000728 ± 0.00011
U30A G37U G44U U45A C70U	< 1e-05				< 1e-05
U31C U49G C67U	< 1e-05				
G29C G32U C34A C50G U65G C68G	8.78e-05 ± 3.1e-05	0.000304 ± 5.8e-05	8.65e-05 ± 2.9e-05	0.000304 ± 7.2e-05	4.42e-05 ± 1.7e-05
U30G U69C	0.000101 ± 2.9e-05		0.00045 ± 0.00019	6.49e-05 ± 3.1e-05	0.000535 ± 0.00011
G29C G60A	< 1e-05	< 1e-05		< 1e-05	< 1e-05
U30G A39G C50G C68G	0.00025 ± 6.5e-05				0.000218 ± 4.7e-05
G29U G62U	< 1e-05	< 1e-05	< 1e-05	< 1e-05	< 1e-05

Variant	self-cleavage kobs at 40 uM GlcN6P (glucosamine-6-phosphate [1]) [s⁻¹]	self-cleavage kobs at 160 uM GlcN6P (glucosamine-6-phosphate [2]) [s⁻¹]	self-cleavage kobs at 640 uM GlcN6P (glucosamine-6-phosphate [3]) [s⁻¹]	self-cleavage kobs at 2500 uM GlcN6P (glucosamine-6-phosphate [4]) [s⁻¹]	self-cleavage kobs at 10000 uM GlcN6P (glucosamine-6-phosphate [5]) [s⁻¹]
G29U G62C	< 1e-05		< 1e-05	< 1e-05	< 1e-05
U30C G59A C68U	< 1e-05				< 1e-05
U30A U69G	< 1e-05				
U30A U45C A48C	< 1e-05				
U31C G41U C70G	0.000329 ± 7e-05				0.00237 ± 0.00061
G29U G41A C58U	< 1e-05				< 1e-05
U30C U31A G35U G37C	< 1e-05				
U30G A52C U65G C67G C70U	< 1e-05				
U30G A42G	0.000448 ± 7.5e-05	0.000561 ± 0.00012	0.00469 ± 0.001	0.0119 ± 0.0032	0.0206 ± 0.0039
U31C G44U	< 1e-05	< 1e-05			2.15e-05 ± 1e-05
G29U U30G G43C C68G	0.000152 ± 2.6e-05				0.0065 ± 0.0015
U31A A64G	0.000322 ± 8.5e-05	0.000708 ± 0.0002	0.00331 ± 0.0006	0.00394 ± 0.0012	0.0255 ± 0.0096
U30C A42C	< 1e-05	< 1e-05		< 1e-05	< 1e-05
G29U A39U	0.000106 ± 1e-05	0.000145 ± 2.1e-05	0.000784 ± 0.00013	0.00196 ± 0.00026	0.0042 ± 0.00041
G29U G32C C61G	< 1e-05				< 1e-05
U30A G63C	< 1e-05	< 1e-05		< 1e-05	< 1e-05
G29U G63C	< 1e-05		< 1e-05		< 1e-05
G29C G41C G44A G60A	< 1e-05				< 1e-05
U31A G62C C70G	< 1e-05				
U31C U45C C58A C61G C67G	< 1e-05				< 1e-05
U30A A39U G62U	< 1e-05				
U30A A39U C67G C68G	0.000113 ± 2.1e-05				8.62e-05 ± 1.7e-05
